Values quoted from earlier work as cited in PMC2225448.

Tests used:
[1] = biological target: EGFR pY1069 pY1069 (Homo sapiens) (UniProt P00533)
[2] = biological target: EGFR pY1069 (Homo sapiens) (UniProt P00533)
[3] = biological target: ErbB2 (Homo sapiens) (UniProt P04626)

Grb7, sequence (Q14451 whole entry): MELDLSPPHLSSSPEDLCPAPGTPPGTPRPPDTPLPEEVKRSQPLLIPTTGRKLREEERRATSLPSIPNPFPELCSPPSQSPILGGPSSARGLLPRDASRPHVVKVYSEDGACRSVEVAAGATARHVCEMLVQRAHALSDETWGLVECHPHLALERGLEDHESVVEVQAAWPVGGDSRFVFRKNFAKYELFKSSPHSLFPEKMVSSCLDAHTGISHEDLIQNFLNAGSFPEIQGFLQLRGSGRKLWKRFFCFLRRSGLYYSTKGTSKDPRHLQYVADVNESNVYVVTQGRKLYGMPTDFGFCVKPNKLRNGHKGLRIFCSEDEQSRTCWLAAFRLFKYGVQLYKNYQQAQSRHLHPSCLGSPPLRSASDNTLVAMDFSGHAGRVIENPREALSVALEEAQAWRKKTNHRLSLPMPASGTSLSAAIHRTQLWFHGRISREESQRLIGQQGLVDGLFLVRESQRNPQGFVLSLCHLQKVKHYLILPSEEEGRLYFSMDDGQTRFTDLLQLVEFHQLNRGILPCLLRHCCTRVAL

For Cbl (from UniProt P22681), the Kd [1] is listed as 400 nM and the Kd [2] is listed as 400 nM.
For Grb7 (from UniProt Q14451), the Kd [3] is listed as 2300 nM.
